Experimental data published in the Immune Epitope Database (IEDB).
pKd: −log10 of the molar value.

What was measured:
HLA-A*01:01 = experiment: IEDB peptide-MHC binding, purified MHC/competitive/radioactivity; filed as Kd, often an IC50 or EC50 that approximates it; ≥ and ≤ were set here for values at or beyond the usual limits of such assays
HLA-A*30:02 = experiment: as above
HLA-A*23:01 = experiment: as above
HLA-A*29:02 = experiment: as above
HLA-A*26:01 [1] = experiment: as above
HLA-A*24:02 = experiment: as above
HLA-A*32:01 = experiment: as above
HLA-B*08:01 = experiment: as above
HLA-B*44:02 = experiment: as above
HLA-B*44:03 = experiment: as above
HLA-A*33:01 = experiment: as above; conditions: source organism: Triticum aestivum
HLA-A*68:01 = experiment: as above; conditions: source organism: Triticum aestivum
HLA-A*03:01 [2] = experiment: as above; conditions: source organism: Triticum aestivum
HLA-A*11:01 = experiment: as above; conditions: source organism: Triticum aestivum
HLA-A*31:01 [3] = experiment: as above; conditions: source organism: Triticum aestivum
HLA-A*03:01 [4] = experiment: IEDB peptide-MHC binding, purified MHC/direct/fluorescence; filed as Kd, often an IC50 or EC50 that approximates it; ≥ and ≤ were set here for values at or beyond the usual limits of such assays; conditions: source organism: Francisella tularensis subsp. holarctica LVS
HLA-A*31:01 [5] = experiment: as above; conditions: source organism: Francisella tularensis subsp. holarctica LVS
HLA-A*26:01 [6] = experiment: IEDB peptide-MHC binding, purified MHC/competitive/fluorescence; filed as Kd, often an IC50 or EC50 that approximates it; ≥ and ≤ were set here for values at or beyond the usual limits of such assays
HLA-B*27:05 = experiment: IEDB peptide-MHC binding, purified MHC/direct/fluorescence; filed as Kd, often an IC50 or EC50 that approximates it; ≥ and ≤ were set here for values at or beyond the usual limits of such assays; conditions: source organism: Mammarenavirus juninense
HLA-A*02:01 = experiment: IEDB peptide-MHC binding, purified MHC/competitive/fluorescence; filed as Kd, often an IC50 or EC50 that approximates it; ≥ and ≤ were set here for values at or beyond the usual limits of such assays; conditions: source organism: Yersinia pestis Antiqua
HLA-A*30:01 = experiment: IEDB peptide-MHC binding, purified MHC/competitive/radioactivity; filed as Kd, often an IC50 or EC50 that approximates it; ≥ and ≤ were set here for values at or beyond the usual limits of such assays; conditions: source organism: Dengue virus 2 Jamaica/1409/1983
[7] = source organism: SARS coronavirus Tor2
[8] = source organism: Vaccinia virus WR
[9] = source organism: Dengue virus 3 Martinique/1243/1999
[10] = source organism: Mammarenavirus whitewaterense
[11] = source organism: Dengue virus 1 Brazil/97-11/1997
[12] = source organism: Triticum aestivum
[13] = source organism: Dengue virus 2 Jamaica/1409/1983
[14] = source organism: Dengue virus 4 Philippines/H241/1956
[15] = source organism: Dengue virus 2 Peru/IQT2913/1996
[16] = source organism: Mammarenavirus guanaritoense

Sequence FNATKFPSVY has a pKd (HLA-A*01:01; [7]) of no more than 4.25, a pKd (HLA-A*30:02; [7]) of 5.92 and a pKd (HLA-A*23:01; [7]) of no more than 4.15. For the same sequence, the pKd (HLA-A*29:02; [7]) was 5.52, the pKd (HLA-A*26:01 [1]; [7]) was no more than 4.61 and the pKd (HLA-A*24:02; [7]) was no more than 4.15.

With RSFEIINVL the pKd (HLA-A*32:01; [8]) was 8.54.

FYGGWHNML was tested, and the pKd (HLA-A*01:01; [7]) was no more than 4.11, the pKd (HLA-A*30:02; [7]) was no more than 4.00 and the pKd (HLA-A*23:01; [7]) was 5.29. It also gave a pKd (HLA-A*29:02; [7]) of 4.81, a pKd (HLA-A*26:01 [1]; [7]) of no more than 4.11 and a pKd (HLA-A*24:02; [7]) of no more than 4.55.

LTNSVIIMAY showed a pKd (HLA-A*01:01; [7]) of 7.01, a pKd (HLA-A*30:02; [7]) of 7.31 and a pKd (HLA-A*23:01; [7]) of no more than 4.15. The pKd (HLA-A*29:02; [7]) was 8.09, the pKd (HLA-A*26:01 [1]; [7]) was 5.70 and the pKd (HLA-A*24:02; [7]) was no more than 4.15.

In the case of GPITTLWEGS, the pKd (HLA-A*32:01; [9]) was 5.54.

For MAGPLVAGGL, the pKd (HLA-B*08:01; [9]) was 5.97.

WDIKDPSLL gave a pKd (HLA-A*01:01; [10]) of no more than 4.37, a pKd (HLA-A*30:02; [10]) of no more than 4.46 and a pKd (HLA-A*23:01; [10]) of no more than 4.11. The pKd (HLA-A*29:02; [10]) was no more than 4.56, the pKd (HLA-A*26:01 [1]; [10]) was no more than 4.11 and the pKd (HLA-A*24:02; [10]) was no more than 4.11.

Sequence LEENMDVEIW has a pKd (HLA-B*44:02; [11]) of 6.57 and a pKd (HLA-B*44:03; [11]) of 6.90.

Work on DTIETLMLLA yielded a pKd (HLA-A*26:01 [1]; [11]) of 6.64.

Work on SSQVLQQSTY yielded a pKd (HLA-A*33:01) of 4.72, a pKd (HLA-A*68:01) of 5.02 and a pKd (HLA-A*03:01 [2]) of 4.87. For the same sequence, the pKd (HLA-A*11:01) was 5.60, the pKd (HLA-A*30:02; [12]) was 6.23 and the pKd (HLA-A*31:01 [3]) was 5.05. The pKd (HLA-A*23:01; [12]) was no more than 4.38, the pKd (HLA-A*29:02; [12]) was 5.52 and the pKd (HLA-A*26:01 [1]; [12]) was 5.33. For the same sequence, the pKd (HLA-A*24:02; [12]) was no more than 4.37.

With LTSRENLLL the pKd (HLA-A*01:01; [9]) was 6.38.

In the case of KHMIAGVLF, the pKd (HLA-A*24:02; source organism: Dengue virus 3 Singapore/8120/1995) was 6.17.

EKMETLQRKY was tested, and the pKd (HLA-A*26:01 [1]; [13]) was no more than 4.70.

FPRYHSIEL was tested, and the pKd (HLA-B*08:01; [8]) was 9.31.

Work on LRAQNALDNL yielded a pKd (HLA-B*08:01; [11]) of 5.87.

With VEGVSGGSW the pKd (HLA-B*44:02; [13]) was 6.66 and the pKd (HLA-B*44:03; [13]) was 6.95.

For KYQLAVTIM, the pKd (HLA-A*24:02; [13]) was 7.53.

For EIDETCEHEY, the pKd (HLA-A*01:01; [7]) was 6.71, the pKd (HLA-A*30:02; [7]) was 5.97 and the pKd (HLA-A*23:01; [7]) was no more than 4.15. The pKd (HLA-A*29:02; [7]) was 6.18, the pKd (HLA-A*26:01 [1]; [7]) was 6.31 and the pKd (HLA-A*24:02; [7]) was no more than 4.15.

For MFMMIFHFV, the pKd (HLA-A*03:01 [4]) was no more than 4.70 and the pKd (HLA-A*31:01 [5]) was 4.92.

RFLEFEALGF showed a pKd (HLA-A*23:01; [14]) of 8.84.

Sequence EPGSSFKFL has a pKd (HLA-B*08:01; [8]) of 5.73.

Work on LMYNLLTII yielded a pKd (HLA-A*32:01; source organism: Vaccinia virus Copenhagen) of 7.52.

In the case of PSVEVKLPDY, the pKd (HLA-A*01:01; [14]) was 5.12 and the pKd (HLA-A*30:02; [14]) was 6.79.

NTNPIQLSSY was tested, and the pKd (HLA-A*01:01; [7]) was 6.98, the pKd (HLA-A*30:02; [7]) was 7.13 and the pKd (HLA-A*23:01; [7]) was no more than 4.15. The pKd (HLA-A*29:02; [7]) was 6.02, the pKd (HLA-A*26:01 [1]; [7]) was 6.46 and the pKd (HLA-A*24:02; [7]) was no more than 4.15.

RGEDGCWYGM was tested, and the pKd (HLA-A*32:01; [13]) was 4.96.

With VLLSKRPSL the pKd (HLA-B*08:01; [8]) was 7.11.

AGEKALKLSW was tested, and the pKd (HLA-B*44:02; [11]) was 6.24.

MIMYLVLGI gave a pKd (HLA-A*32:01; [8]) of 7.01.

RWFVERNMVT gave a pKd (HLA-A*24:02; [13]) of 6.07.

Work on NRRRRTAGM yielded a pKd (HLA-B*08:01; [15]) of 7.00.

Sequence ELSQSMFHY has a pKd (HLA-A*26:01 [6]; source organism: Bacillus cereus G9241) of 6.60.

RRDLKLVDV showed a pKd (HLA-B*27:05) of no more than 4.70.

In the case of RLINNRVLF, the pKd (HLA-A*32:01; [8]) was 8.25.

For TNEVHTWTEQ, the pKd (HLA-A*32:01; [11]) was 5.27.

Work on TYQNKVVKVL yielded a pKd (HLA-B*08:01; [14]) of 6.81.

Sequence TWAFCEVLTL has a pKd (HLA-A*23:01; [14]) of 6.63 and a pKd (HLA-A*24:02; [14]) of 5.65.

For KRRLRTLIL, the pKd (HLA-B*08:01; [9]) was 6.00.

In the case of NWASVKKDLI, the pKd (HLA-A*23:01; [9]) was 6.54.

LIIDEIGYL showed a pKd (HLA-A*02:01) of 8.34 and a pKd (HLA-A*26:01 [6]; source organism: Yersinia pestis Antiqua) of 8.36.

With EFFDCFKYIL the pKd (HLA-A*23:01; [16]) was 5.77, the pKd (HLA-A*29:02; [16]) was 6.19 and the pKd (HLA-A*24:02; [16]) was 5.06.

In the case of FFLPIFSEF, the pKd (HLA-A*23:01; [16]) was 9.70, the pKd (HLA-A*29:02; [16]) was 9.04 and the pKd (HLA-A*24:02; [16]) was 7.49.

NVHTWTEQY showed a pKd (HLA-A*01:01; [13]) of 5.22.

Sequence SQHQHLAIM has a pKd (HLA-B*08:01; [8]) of 6.85.

Work on TSKKRSWPLN yielded a pKd (HLA-A*30:01) of 5.34 and a pKd (HLA-A*32:01; [13]) of no more than 4.41.

With ISGLFPVSI the pKd (HLA-A*32:01; [15]) was 5.90.
